Target: GroEL (E. coli Cpn60) (E. coli) (UniProt P0A6F5)
Assay: cell-based or functional assay

GroEL (E. coli Cpn60) (E. coli), sequence (P0A6F5 2-548 limits assumed): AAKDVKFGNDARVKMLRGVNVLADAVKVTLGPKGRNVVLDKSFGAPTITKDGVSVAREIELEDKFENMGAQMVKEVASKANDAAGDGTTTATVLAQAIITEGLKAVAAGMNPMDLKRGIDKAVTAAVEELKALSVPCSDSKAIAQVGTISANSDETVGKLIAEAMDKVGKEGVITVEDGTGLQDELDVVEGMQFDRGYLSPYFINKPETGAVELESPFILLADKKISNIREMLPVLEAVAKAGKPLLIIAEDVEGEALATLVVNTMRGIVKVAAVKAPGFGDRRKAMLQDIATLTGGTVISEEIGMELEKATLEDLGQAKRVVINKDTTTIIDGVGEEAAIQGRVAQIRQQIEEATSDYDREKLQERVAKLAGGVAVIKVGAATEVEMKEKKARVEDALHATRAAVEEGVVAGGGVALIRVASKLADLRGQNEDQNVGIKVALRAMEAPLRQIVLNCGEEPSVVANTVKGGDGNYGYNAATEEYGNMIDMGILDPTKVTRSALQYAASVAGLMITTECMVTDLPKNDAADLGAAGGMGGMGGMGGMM
Ala-Cpn10-cHis, sequence (P61604 other isoform, or with tags, fused parts or gaps limits assumed): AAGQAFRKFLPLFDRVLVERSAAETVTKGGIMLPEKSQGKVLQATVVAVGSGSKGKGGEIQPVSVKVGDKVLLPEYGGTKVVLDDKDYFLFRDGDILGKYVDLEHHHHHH
X-Cpn10 (i.e. non-acetylated), sequence (P61604 2-102 limits assumed): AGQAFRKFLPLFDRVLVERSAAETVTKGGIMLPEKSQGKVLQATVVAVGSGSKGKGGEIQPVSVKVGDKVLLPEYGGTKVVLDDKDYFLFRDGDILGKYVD
Ala-Cpn10 (Wild type Cpn10), sequence (P61604 other isoform, or with tags, fused parts or gaps limits assumed): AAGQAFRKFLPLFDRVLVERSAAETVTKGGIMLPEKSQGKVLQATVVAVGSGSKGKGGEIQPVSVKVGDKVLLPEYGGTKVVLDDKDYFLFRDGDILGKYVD
Gly-Cpn10, sequence (P61604 other isoform, or with tags, fused parts or gaps limits assumed): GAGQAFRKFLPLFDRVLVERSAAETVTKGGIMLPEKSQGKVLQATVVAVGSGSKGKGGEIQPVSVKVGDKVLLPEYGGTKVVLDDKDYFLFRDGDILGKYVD

| Substance | Refolding activity (% of Ala-Cpn10) (% of Ala-Cpn10) |
| --- | --- |
| Ala-Cpn10 (Wild type Cpn10) (from UniProt P61604 2-102) | 100 |
| Ala-Cpn10-cHis (from UniProt P61604 2-102) | 40 |
| Cpn10-NtermES (from UniProt P61604 11-102) | 12 |
| Gly-Cpn10 (from UniProt P61604 2-102) | 107 |
| X-Cpn10 (i.e. non-acetylated) (from UniProt P61604 2-102) | 105 |

— US20120014998A1
